Data from US20190162720A1.

Tests used:
[1] = molecular target: anti-biotin antibody (Abcam plc., ab53494, Rabbit polyclonal); experiment: SPR Biacore T200; protein A/G 100 µg/mL fed over anti-biotin antibody on the chip (Example 1)
[2] = molecular target: anti-biotin antibody (Abcam plc., ab53494, Rabbit polyclonal); experiment: SPR Biacore T200; protein A/G 100 µg/mL fed over anti-biotin antibody on the chip (Example 2)
[3] = molecular target: anti-biotin antibody (Abcam plc., ab53494, Rabbit polyclonal); experiment: SPR Biacore T200; protein A/G 100 µg/mL fed over anti-biotin antibody on the chip (Example 3)
[4] = molecular target: anti-biotin antibody (Abcam plc., ab53494, Rabbit polyclonal); experiment: SPR Biacore T200; protein A/G 100 µg/mL fed over anti-biotin antibody on the chip (Example 4)
[5] = molecular target: anti-biotin antibody (Abcam plc., ab53494, Rabbit polyclonal); experiment: SPR Biacore T200; protein A/G 100 µg/mL fed over anti-biotin antibody on the chip (Example 5)
[6] = molecular target: anti-CRP antibody (R&D Systems, Inc., Human C-Reactive protein Antibody, Monoclonal Mouse IgG2B, MAB17071-500); experiment: SPR Biacore T200; anti-CRP antibody 100 µg/mL fed over protein A/G held on the first antibody (Example 7)
[7] = molecular target: anti-CRP antibody (R&D Systems, Inc., Human C-Reactive protein Antibody, Monoclonal Mouse IgG2B, MAB17071-500); experiment: SPR Biacore T200; anti-CRP antibody 100 µg/mL fed over protein A/G held on anti-mPEG antibody (Example 9)
[8] = molecular target: anti-CRP antibody (R&D Systems, Inc., Human C-Reactive protein Antibody, Monoclonal Mouse IgG2B, MAB17071-500); experiment: SPR Biacore T200; anti-CRP antibody 100 µg/mL fed over protein A/G held on anti-BSA antibody (Example 15)
[9] = molecular target: anti-CRP antibody (R&D Systems, Inc., Human C-Reactive protein Antibody, Monoclonal Mouse IgG2B, MAB17071-500); experiment: SPR Biacore T200; anti-CRP antibody 100 µg/mL fed over protein A/G held on anti-BSA antibody (Example 16)
[10] = molecular target: anti-CRP antibody (R&D Systems, Inc., Human C-Reactive protein Antibody, Monoclonal Mouse IgG2B, MAB17071-500); experiment: SPR Biacore T200; anti-CRP antibody 100 µg/mL fed over protein A/G held on anti-BSA antibody (Example 17)
[11] = molecular target: anti-CRP antibody (R&D Systems, Inc., Human C-Reactive protein Antibody, Monoclonal Mouse IgG2B, MAB17071-500); experiment: SPR Biacore T200; anti-CRP antibody 100 µg/mL fed over protein A/G held on anti-mPEG antibody (Example 10)
[12] = molecular target: anti-BSA antibody (Bioss Inc., bs-0292R, polyclonal antibody); experiment: SPR Biacore T200; protein A/G (six domains) 100 µg/mL fed over anti-BSA antibody on the chip (Example 15)
[13] = molecular target: anti-BSA antibody (Bioss Inc., bs-0292R, polyclonal antibody); experiment: SPR Biacore T200; protein A/G (six domains) 100 µg/mL fed over anti-BSA antibody on the chip (Example 16)
[14] = molecular target: anti-BSA antibody (Bioss Inc., bs-0292R, polyclonal antibody); experiment: SPR Biacore T200; protein A/G (six domains) 100 µg/mL fed over anti-BSA antibody on the chip (Example 17)
[15] = molecular target: anti-CRP antibody (R&D Systems, Inc., Human C-Reactive protein Antibody, Monoclonal Mouse IgG2B, MAB17071-500); experiment: SPR Biacore T200; anti-CRP antibody 100 µg/mL fed over protein A/G held on anti-biotin antibody (Example 12)
[16] = molecular target: anti-CRP antibody (R&D Systems, Inc., Human C-Reactive protein Antibody, Monoclonal Mouse IgG2B, MAB17071-500); experiment: SPR Biacore T200; anti-CRP antibody 100 µg/mL fed over protein A/G held on anti-biotin antibody (Example 13)
[17] = molecular target: anti-mPEG monoclonal antibody (Abcam plc., ab51257, Mouse monoclonal, Anti-Polyethylene glycol antibody [PEG-B-47]); experiment: SPR Biacore T200; protein A/G (six domains) 101 µg/mL fed over anti-mPEG antibody on the mPEG chip (Example 9)
[18] = molecular target: anti-adiponectin antibody (R&D Systems, Inc., Human Adiponectin/Acrp30 Antibody, Monoclonal Mouse IgG2B, MAB10651); experiment: SPR Biacore T200; anti-adiponectin antibody 100 µg/mL fed over protein A/G held on the first antibody (Example 1)
[19] = molecular target: anti-adiponectin antibody (R&D Systems, Inc., Human Adiponectin/Acrp30 Antibody, Monoclonal Mouse IgG2B, MAB10651); experiment: SPR Biacore T200; anti-adiponectin antibody 100 µg/mL fed over protein A/G held on the first antibody (Example 2)
[20] = molecular target: anti-adiponectin antibody (R&D Systems, Inc., Human Adiponectin/Acrp30 Antibody, Monoclonal Mouse IgG2B, MAB10651); experiment: SPR Biacore T200; anti-adiponectin antibody 100 µg/mL fed over protein A/G held on the first antibody (Example 3)
[21] = molecular target: anti-adiponectin antibody (R&D Systems, Inc., Human Adiponectin/Acrp30 Antibody, Monoclonal Mouse IgG2B, MAB10651); experiment: SPR Biacore T200; anti-adiponectin antibody 100 µg/mL fed over protein A/G held on the first antibody (Example 4)
[22] = molecular target: anti-adiponectin antibody (R&D Systems, Inc., Human Adiponectin/Acrp30 Antibody, Monoclonal Mouse IgG2B, MAB10651); experiment: SPR Biacore T200; anti-adiponectin antibody 100 µg/mL fed over protein A/G held on the first antibody (Example 5)
[23] = molecular target: anti-CRP antibody (R&D Systems, Inc., Human C-Reactive protein Antibody, Monoclonal Mouse IgG2B, MAB17071-500); experiment: SPR Biacore T200; anti-CRP antibody 100 µg/mL fed over protein A/G held on anti-streptavidin antibody (Example 14)
[24] = molecular target: anti-mPEG monoclonal antibody (Abcam plc., ab51257, Mouse monoclonal, Anti-Polyethylene glycol antibody [PEG-B-47]); experiment: SPR Biacore T200; protein A/G (six domains) 1,000 µg/mL fed over anti-mPEG antibody on the mPEG chip (Example 10)
[25] = molecular target: anti-streptavidin antibody (R&D Systems, Inc., Streptavidin Antibody, Recombinant Monoclonal Rabbit IgG Clone #1220C, MAB9020); experiment: SPR Biacore T200; protein A/G (six domains) 100 µg/mL fed over anti-streptavidin antibody on the chip (Example 14)
[26] = molecular target: anti-biotin monoclonal antibody (Abcam plc., ab36406, Mouse monoclonal); experiment: SPR Biacore T200; protein A/G (six domains) 25 µg/mL fed over anti-biotin monoclonal antibody on the chip (Example 7)
[27] = molecular target: anti-biotin monoclonal antibody (Abcam plc., ab36406, Mouse monoclonal); experiment: SPR Biacore T200; protein A/G (six domains) 100 µg/mL fed over anti-biotin monoclonal antibody on the biotin-PEG chip (Example 12)
[28] = molecular target: anti-biotin monoclonal antibody (Abcam plc., ab36406, Mouse monoclonal); experiment: SPR Biacore T200; protein A/G (six domains) 100 µg/mL fed over anti-biotin monoclonal antibody on the biotin-PEG chip (Example 13)

amount of the protein A/G immobilized [1]: 558 RU
amount of the protein A/G immobilized [2]: 718 RU
amount of the protein A/G immobilized [3]: 890 RU
amount of the protein A/G immobilized [4]: 884 RU
amount of the protein A/G immobilized [5]: 890 RU
Amount of second antibody immobilized [6]: 2300 RU
Amount of second antibody immobilized [7]: 2840 RU
Amount of second antibody immobilized [8]: 2800 RU
Amount of second antibody immobilized [9]: 2820 RU
Amount of second antibody immobilized [10]: 2680 RU
Amount of second antibody immobilized [11]: 3450 RU
amount of the protein A/G immobilized [12]: 602 RU
amount of protein A/G immobilized [13]: 497 RU
amount of the protein A/G immobilized [14]: 507 RU
Amount of second antibody immobilized [15]: 2330 RU
Amount of second antibody immobilized [16]: 2890 RU
amount of the protein A/G immobilized [17]: 637 RU
Amount of second antibody immobilized [18]: 1100 RU
Amount of second antibody immobilized [19]: 935 RU
Amount of second antibody immobilized [20]: 1610 RU
Amount of second antibody immobilized [21]: 1620 RU
Amount of second antibody immobilized [22]: 1560 RU
Amount of second antibody immobilized [23]: 3400 RU
amount of the protein A/G immobilized [24]: 685 RU
amount of the protein A/G immobilized [25]: 716 RU
amount of the protein A/G immobilized [26]: 622 RU
amount of the protein A/G immobilized [27]: 603 RU
amount of the protein A/G immobilized [28]: 828 RU
Substance: protein A/G (Pierce 21186, Recombinant Protein A/G from E. coli, six domains)
